{"source": "the supplement of paper PMC9732359", "note": "± gives the uncertainty stated by the source."}
{"test": "protein stability index of a GFP-peptide fusion (yeast GPS) (PSI 1-4); higher = more stable; sorted into four equal gates, so the index is relative within each strain", "conditions": "doa10∆", "in_short": "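Mid-log yeast cultures in leucine-free medium, carrying a pooled plasmid library, were sorted into four equal gates by their GFP/Cherry fluorescence ratio. Each plasmid expressed Cherry along with GFP fused upstream of a tiled 17-residue yeast protein peptide. Plasmids recovered from each gate were PCR-amplified and Illumina-sequenced, with reads assigned to strains by barcodes. The protein stability index was obtained by summing each gate's read frequency weighted by its gate number.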"}
{"sequence": "SLKQYAGNLITTPEINN [SRP68]", "protein stability index": "2.69 ± 0.073"}
{"sequence": "SLLKTKLKQQSSTDIPS [RRI1]", "protein stability index": "2.15 ± 0.05"}
{"sequence": "SLLLAHFFSKSCSFFAK [NUT1]", "protein stability index": "1.83 ± 0.057"}
{"sequence": "SLLNLLNISPFTFGLTV [RPP0]", "protein stability index": "1.79 ± 0.049"}
{"sequence": "SLLPYYHLTKAVKLGDL [RPN3]", "protein stability index": "2.21 ± 0.052"}
{"sequence": "SLNEVGTLKVILNLYSS [YML103C/NUP188]", "protein stability index": "1.93 ± 0.12"}
{"sequence": "SLNYKFTTNKSKDVSRL [SRP21]", "protein stability index": "3.13 ± 0.12"}
{"sequence": "SLPFLLRHMPLASIPDI [SSN2]", "protein stability index": "1.94 ± 0.072"}
{"sequence": "SLPSKLTKYKEMERIVK [SRP68]", "protein stability index": "2.59 ± 0.055"}
{"sequence": "SLQDNSAAINNEDARAI [RPN4]", "protein stability index": "3.12 ± 0.078"}
{"sequence": "SLRETNTTDPLGHTKAA [SIR2]", "protein stability index": "2.77 ± 0.15"}
{"sequence": "SLSEGCDILVATPGRLI [PRP28]", "protein stability index": "3.47 ± 0.12"}
{"sequence": "SLSYMAFPNASKKNRPT [RRP40]", "protein stability index": "2.2 ± 0.22"}
{"sequence": "SLTEATKTNVDNNSKAE [YLR335W/NUP2]", "protein stability index": "3.14 ± 0.052"}
{"sequence": "SLTKDKSIRKDTVEEKK [SIR4]", "protein stability index": "3.03 ± 0.064"}
{"sequence": "SLVIIILVKRYSIEMKP [ECM29]", "protein stability index": "1.15 ± 0.049"}
{"sequence": "SMDTKKKHKQKKVLEID [BRN1]", "protein stability index": "3.36 ± 0.063"}
{"sequence": "SMFGSDQKTGRAKSSSH [RPN4]", "protein stability index": "3.02 ± 0.087"}
{"sequence": "SMGTMICGYTRKEGPTI [PRE2]", "protein stability index": "3.27 ± 0.078"}
{"sequence": "SMPLEQLIPIILRQRGP [SRB4]", "protein stability index": "2.05 ± 0.057"}
{"sequence": "SNAAGADDAISMHLLKD [SRB8]", "protein stability index": "3.17 ± 0.1"}
{"sequence": "SNAVTQTNIWEENWDDV [SEM1]", "protein stability index": "3.36 ± 0.085"}
{"sequence": "SNDLCSQIFDQLKDMQT [SRB8]", "protein stability index": "2.72 ± 0.047"}
{"sequence": "SNDNLDLISEILKWVQW [MED1]", "protein stability index": "3.03 ± 0.057"}
{"sequence": "SNEICDLAYQYVRALEL [SRB2]", "protein stability index": "2.92 ± 0.047"}
{"sequence": "SNEIKVTNDLDTSAEKD [SIR4]", "protein stability index": "3.29 ± 0.095"}
{"sequence": "SNHNNLNLNNSELQPQN [SNF2]", "protein stability index": "3.02 ± 0.044"}
{"sequence": "SNIDYQTLLANSDHAKF [SNF2]", "protein stability index": "2.24 ± 0.084"}
{"sequence": "SNIEQTESLRVENSVLI [YIL149C/MLP2]", "protein stability index": "3.25 ± 0.091"}
{"sequence": "SNIIHDESDTISFRSNL [SNF6]", "protein stability index": "2.79 ± 0.1"}
{"sequence": "SNKPIFLFAPELGAINL [SWI1]", "protein stability index": "2.23 ± 0.062"}
{"sequence": "SNPQHIIQPFLDNSKMD [RGR1]", "protein stability index": "2.91 ± 0.062"}
{"sequence": "SNPSGNYTGWKAISVGA [PRE9]", "protein stability index": "1.89 ± 0.073"}
{"sequence": "SNSAGTSLFGSSSAQQT [YJL041W/NSP1]", "protein stability index": "3.15 ± 0.069"}
{"sequence": "SNSSELEPDYQAPFSTS [MED1]", "protein stability index": "2.7 ± 0.044"}
{"sequence": "SNTRTMTYKNKLTVCFD [MED2]", "protein stability index": "2.51 ± 0.073"}
{"sequence": "SPDQMRNLQMGLRNQNM [GRR1]", "protein stability index": "3.23 ± 0.12"}
{"sequence": "SPEEQRSLLQEAIETCK [GAL11]", "protein stability index": "1.88 ± 0.099"}
{"sequence": "SPFGGSSHAKGIVLEKL [RPS23A]", "protein stability index": "3.19 ± 0.096"}
{"sequence": "SPIPFPPLTYKNDTKIL [PRP8]", "protein stability index": "2.91 ± 0.057"}
{"sequence": "SPKPYAVKYGLNHVVAL [RPL8A]", "protein stability index": "2.22 ± 0.066"}
{"sequence": "SPLDIYSDEASAQKKRF [RPS2]", "protein stability index": "2.74 ± 0.092"}
{"sequence": "SPVELSRMFEEVSGSIQ [SMC1]", "protein stability index": "2.9 ± 0.06"}
{"sequence": "SPVQIAFNRFMAESLVD [SSN8]", "protein stability index": "1.52 ± 0.043"}
{"sequence": "SQDATKVDATPEESKPI [YLR335W/NUP2]", "protein stability index": "2.87 ± 0.12"}
{"sequence": "SQIRLYAKFKRNTMMIQ [RGR1]", "protein stability index": "2.44 ± 0.21"}
{"sequence": "SQKQTLIKKPLTVFYAI [SSN3]", "protein stability index": "2.1 ± 0.089"}
{"sequence": "SQLAKWKTAEEVSALVR [PRP8]", "protein stability index": "1.26 ± 0.17"}
{"sequence": "SQPKIGYGSNKKTKFLS [RPL32]", "protein stability index": "1.23 ± 0.15"}
{"sequence": "SQPTAAGGPDMTTPQNI [DSN1]", "protein stability index": "1.82 ± 0.065"}
{"sequence": "SQSKMMSSQISSLIPHC [MTR3]", "protein stability index": "2.35 ± 0.057"}
{"sequence": "SQSLGVSNKFEKIFHYG [PUP3]", "protein stability index": "3.47 ± 0.13"}
{"sequence": "SQTPSFNTNSSFTPSTV [YOR098C/NUP1]", "protein stability index": "2.4 ± 0.033"}
{"sequence": "SQVVWIRRLRVLRRLLA [RPL19A]", "protein stability index": "1.22 ± 0.054"}
{"sequence": "SRAQILQIHSRKMTTDD [RPT5]", "protein stability index": "2.72 ± 0.082"}
{"sequence": "SRDELIRLAKTLKKNNV [RPN10]", "protein stability index": "1.77 ± 0.086"}
{"sequence": "SRDLWCFSINDDPVPTP [SSN2]", "protein stability index": "2.21 ± 0.085"}
{"sequence": "SRENNSEYMVFGKLAFP [YJL039C/NUP192]", "protein stability index": "2.49 ± 0.064"}
{"sequence": "SREVLRYEEFADKVKLG [RPC40]", "protein stability index": "2.96 ± 0.08"}
{"sequence": "SRFTNVSVIAPESQGQH [YMR153W/NUP53]", "protein stability index": "3 ± 0.09"}
{"sequence": "SRKRGGENVFLKRISDG [SIR3]", "protein stability index": "3.35 ± 0.086"}
{"sequence": "SRLTLLLRALKTNEESA [PRP8]", "protein stability index": "1.91 ± 0.056"}
{"sequence": "SRMFEEVSGSIQYKKEY [SMC1]", "protein stability index": "3.09 ± 0.057"}
{"sequence": "SRNFSTRDEETTKLAFL [SIR4]", "protein stability index": "3.04 ± 0.065"}
{"sequence": "SRRPEPKKFGGKGARSR [RPS16A]", "protein stability index": "3.06 ± 0.11"}
{"sequence": "SRRTVNKEMETQRIMTN [YLR018C/POM34]", "protein stability index": "3.51 ± 0.12"}
{"sequence": "SRVINVVRAASSLASQD [RRP6]", "protein stability index": "1.98 ± 0.082"}
{"sequence": "SSDVDMDDEEWRSKRIE [RPC53]", "protein stability index": "3.47 ± 0.1"}
{"sequence": "SSEQDYSTLKELLEYSD [YCG1]", "protein stability index": "2.92 ± 0.082"}
{"sequence": "SSETDDDHSQVINPQQL [DSN1]", "protein stability index": "2.99 ± 0.048"}
{"sequence": "SSFGSESLTFNEFQLQW [SWI1]", "protein stability index": "2.98 ± 0.066"}
{"sequence": "SSFNKRSKFLSTVAKFL [IRR1]", "protein stability index": "2.76 ± 0.052"}
{"sequence": "SSGFNEDIVGALRRRVG [REC8]", "protein stability index": "1.17 ± 0.085"}
{"sequence": "SSHQRVFKLSTNLISKI [SWP82]", "protein stability index": "2.08 ± 0.073"}
{"sequence": "SSLEARYFFYLSKINAI [RPN3]", "protein stability index": "1.74 ± 0.05"}
{"sequence": "SSLSAIIVFGYPESISN [YDL088C/ASM4]", "protein stability index": "1.75 ± 0.067"}
{"sequence": "SSLYEASLNALKESIKN [RPN1]", "protein stability index": "3.26 ± 0.1"}
{"sequence": "SSNTNNNTNNNNTNTGA [SWI1]", "protein stability index": "3.48 ± 0.071"}
{"sequence": "SSPDTMKLTDLLSLINS [SNF12]", "protein stability index": "2.69 ± 0.042"}
{"sequence": "SSPEEPFMSYSPQLTAI [SNF12]", "protein stability index": "2.45 ± 0.065"}
{"sequence": "SSSMDMQANTNALRRNL [SSN3]", "protein stability index": "2.63 ± 0.055"}
{"sequence": "SSTGVPESIDTILSSKL [SRB2]", "protein stability index": "2.62 ± 0.19"}
{"sequence": "SSTKDYLTPPHECRLRD [RET1]", "protein stability index": "3.34 ± 0.12"}
{"sequence": "SSVFLPSRKDCMEVASA [BRR2]", "protein stability index": "2.73 ± 0.063"}
{"sequence": "SSVKTCFKPMSLTSKRL [RIP1]", "protein stability index": "3.02 ± 0.063"}
{"sequence": "SSYDLLFNESFIMASVG [SRP72]", "protein stability index": "3.18 ± 0.12"}
{"sequence": "STDELVGSPLTVSILQE [POP8]", "protein stability index": "2.08 ± 0.084"}
{"sequence": "STDKLVQCHGSFATATC [SIR2]", "protein stability index": "2.72 ± 0.066"}
{"sequence": "STFENRNVGKTLVNKST [RPS1A]", "protein stability index": "2.91 ± 0.085"}
{"sequence": "STFREWKNLVLKLSQAF [YJR042W/NUP85]", "protein stability index": "2.85 ± 0.079"}
{"sequence": "STLEPTLRKELEQIQVQ [YIL149C/MLP2]", "protein stability index": "2.75 ± 0.096"}
{"sequence": "STLGDCLGIKDEEMLTS [GAL11]", "protein stability index": "3.17 ± 0.18"}
{"sequence": "STMKENKDLSELVIRLE [YIL149C/MLP2]", "protein stability index": "3.08 ± 0.08"}
{"sequence": "STNESNKSISDEITEDM [SSN2]", "protein stability index": "2.5 ± 0.05"}
{"sequence": "STPYLEILVEESGLRPV [PCI8]", "protein stability index": "1.57 ± 0.048"}
{"sequence": "STSYAIKKKDELERVAK [RPS5]", "protein stability index": "3.44 ± 0.084"}
{"sequence": "STTMDGANDLGFTASVS [MED1]", "protein stability index": "3.08 ± 0.092"}
{"sequence": "STTTSVNGSTTAGVGST [SIN4]", "protein stability index": "3.06 ± 0.044"}
{"sequence": "STVSGELNDNPAWFNNP [YMR153W/NUP53]", "protein stability index": "3.36 ± 0.086"}
{"sequence": "STYRLEDVLSSFYRVEK [SSN2]", "protein stability index": "2.09 ± 0.074"}
{"sequence": "SVAPTKQREIVKAFLSI [NUT1]", "protein stability index": "2.1 ± 0.11"}
{"sequence": "SVDLEKLAFGLTKLNED [TAF14]", "protein stability index": "3.54 ± 0.19"}
{"sequence": "SVKESTGMSSMSPFLRK [SRB4]", "protein stability index": "3.42 ± 0.14"}
{"sequence": "SVKFTHIAHTLPEKVNF [SSN2]", "protein stability index": "2.17 ± 0.05"}
